PMC10251734

Target: SARS-CoV-2 Wuhan-Hu-1 spike, soluble trimeric, residues 1-1204, 6 proline mutations (SARS-CoV-2) (UniProt P0DTC2)
Assay: SEC

**Q.** With “SARS-CoV-2 Wuhan-Hu-1 spike, soluble trimeric, residues 1-1204, 6 proline mutations (from UniProt P0DTC2 14-1204) (domain or fragment)” as the substance, how does the stoichiometry N read?
**A.** 3
